Measured values published in PMC5624926.

Columns and labels:
[1] = target: CD22_(20–687)F (human) (UniProt P20273); assay: ITC; Auto-ITC200; 5 μM CD22 in the cell, 50 μM Fab in the syringe; 35 °C; triplicate
[2] = target: dCD22_(20–687) (human) (UniProt P20273); assay: as above
[3] = target: CD22_(20–687)F (human) (UniProt P20273); assay: BLI; Octet RED96; CD22_(20–687) forms loaded on Ni-NTA biosensors; Fab in solution 500 to 62.5 nM; 1x PBS pH 7.4, 0.002% Tween, 0.01% BSA; 1:1 fit; triplicate
[4] = target: dCD22_(20–687) (human) (UniProt P20273); assay: as above

B1: epratuzumab Fab (Fab, V domains shown)
VH: QVQLVQSGAEVKKPGSSVKVSCKASGYTFTSYWLHWVRQAPGQGLEWIGYINPRNDYTEYNQNFKDKATITADESTNTAYMELSSLRSEDTAFYFCARRDITTFYWGQGTTVTVSS
VL: DIQLTQSPSSLSASVGDRVTMSCKSSQSVLYSANHKNYLAWYQQKPGKAPKLLIYWASTRESGVPSRFSGSGSGTDFTLTISSLQPEDIATYYCHQYLSSWTFGGGTKLEIK
Kd [1]: 188 nM
Kd [2]: 58 nM
Kd [3]: 327 nM
Kd [4]: 24 nM
